T1: human calcitonin receptor (human, UniProt P30988 25-474)
T1 construct: whole, on cells; Used as cell membranes prepared from the transfected BHK cells (Assay VII), not as intact cells; also called hCTR; hCT
T1 sequence (looked up): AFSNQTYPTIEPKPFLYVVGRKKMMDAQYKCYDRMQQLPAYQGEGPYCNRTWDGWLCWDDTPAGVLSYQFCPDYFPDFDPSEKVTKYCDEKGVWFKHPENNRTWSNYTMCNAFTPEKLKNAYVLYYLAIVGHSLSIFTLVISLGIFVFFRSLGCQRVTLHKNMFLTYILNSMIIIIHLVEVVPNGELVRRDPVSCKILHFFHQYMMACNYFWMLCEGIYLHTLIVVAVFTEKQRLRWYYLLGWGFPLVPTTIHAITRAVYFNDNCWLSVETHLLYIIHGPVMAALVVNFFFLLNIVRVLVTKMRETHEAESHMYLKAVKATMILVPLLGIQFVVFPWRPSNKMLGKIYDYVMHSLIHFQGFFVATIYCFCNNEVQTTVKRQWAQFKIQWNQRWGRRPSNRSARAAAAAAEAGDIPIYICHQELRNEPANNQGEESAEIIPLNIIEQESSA

B1: N^ε1-[(4S)-4-carboxy-4-(19-carboxynonadecanoylamino)butanoyl]-[Arg17,Pro21,Pro27]-h-amylin (peptide)
peptide: K([γGlu-C20 diacid])CNTATCATQRLANFLRHSSPNFGAIPSSTNVGSNTY-NH2
modifications: disulfide 2-7; N-terminus assumed
SMILES: CC[C@H](C)[C@H](NC(=O)[C@H](C)NC(=O)CNC(=O)[C@H](Cc1ccccc1)NC(=O)[C@H](CC(N)=O)NC(=O)[C@@H]1CCCN1C(=O)[C@H](CO)NC(=O)[C@H](CO)NC(=O)[C@H](Cc1c[nH]cn1)NC(=O)[C@H](CCCNC(=N)N)NC(=O)[C@H](CC(C)C)NC(=O)[C@H](Cc1ccccc1)NC(=O)[C@H](CC(N)=O)NC(=O)[C@H](C)NC(=O)[C@H](CC(C)C)NC(=O)[C@H](CCCNC(=N)N)NC(=O)[C@H](CCC(N)=O)NC(=O)[C@@H](NC(=O)[C@H](C)NC(=O)[C@@H]1CSSC[C@H](NC(=O)[C@@H](N)CCCCNC(=O)CC[C@H](NC(=O)CCCCCCCCCCCCCCCCCCC(=O)O)C(=O)O)C(=O)N[C@@H](CC(N)=O)C(=O)N[C@@H]([C@@H](C)O)C(=O)N[C@@H](C)C(=O)N[C@@H]([C@@H](C)O)C(=O)N1)[C@@H](C)O)C(=O)N1CCC[C@H]1C(=O)N[C@@H](CO)C(=O)N[C@@H](CO)C(=O)N[C@H](C(=O)N[C@@H](CC(N)=O)C(=O)N[C@H](C(=O)NCC(=O)N[C@@H](CO)C(=O)N[C@@H](CC(N)=O)C(=O)N[C@H](C(=O)N[C@@H](Cc1ccc(O)cc1)C(N)=O)[C@@H](C)O)C(C)C)[C@@H](C)O
notes: also called compound 48
B2: N^ε-[(4S)-4-carboxy-4-(19-carboxynonadecanoylamino)butanoyl]Lys[Arg1,Arg17,Pro21,Pro27,His35]-h-amylin (peptide)
peptide: K([γGlu-C20 diacid])RCNTATCATQRLANFLRHSSPNFGAIPSSTNVGSHTY-NH2
modifications: disulfide 3-8; N-terminus assumed
SMILES: CC[C@H](C)[C@H](NC(=O)[C@H](C)NC(=O)CNC(=O)[C@H](Cc1ccccc1)NC(=O)[C@H](CC(N)=O)NC(=O)[C@@H]1CCCN1C(=O)[C@H](CO)NC(=O)[C@H](CO)NC(=O)[C@H](Cc1c[nH]cn1)NC(=O)[C@H](CCCNC(=N)N)NC(=O)[C@H](CC(C)C)NC(=O)[C@H](Cc1ccccc1)NC(=O)[C@H](CC(N)=O)NC(=O)[C@H](C)NC(=O)[C@H](CC(C)C)NC(=O)[C@H](CCCNC(=N)N)NC(=O)[C@H](CCC(N)=O)NC(=O)[C@@H](NC(=O)[C@H](C)NC(=O)[C@@H]1CSSC[C@H](NC(=O)[C@H](CCCNC(=N)N)NC(=O)[C@@H](N)CCCCNC(=O)CC[C@H](NC(=O)CCCCCCCCCCCCCCCCCCC(=O)O)C(=O)O)C(=O)N[C@@H](CC(N)=O)C(=O)N[C@@H]([C@@H](C)O)C(=O)N[C@@H](C)C(=O)N[C@@H]([C@@H](C)O)C(=O)N1)[C@@H](C)O)C(=O)N1CCC[C@H]1C(=O)N[C@@H](CO)C(=O)N[C@@H](CO)C(=O)N[C@H](C(=O)N[C@@H](CC(N)=O)C(=O)N[C@H](C(=O)NCC(=O)N[C@@H](CO)C(=O)N[C@@H](Cc1c[nH]cn1)C(=O)N[C@H](C(=O)N[C@@H](Cc1ccc(O)cc1)C(N)=O)[C@@H](C)O)C(C)C)[C@@H](C)O
notes: also called compound 44
B3: N^-1-[(4S)-4-carboxy-4-(19-carboxynonadecanoylamino)butanoyl]-Gly[Arg1,Arg17,Pro21,Pro27,His35]-h-amylin (peptide)
peptide: {C20 diacid-γGlu}-GRCNTATCATQRLANFLRHSSPNFGAIPSSTNVGSHTY-NH2
modifications: disulfide 3-8
SMILES: CC[C@H](C)[C@H](NC(=O)[C@H](C)NC(=O)CNC(=O)[C@H](Cc1ccccc1)NC(=O)[C@H](CC(N)=O)NC(=O)[C@@H]1CCCN1C(=O)[C@H](CO)NC(=O)[C@H](CO)NC(=O)[C@H](Cc1c[nH]cn1)NC(=O)[C@H](CCCNC(=N)N)NC(=O)[C@H](CC(C)C)NC(=O)[C@H](Cc1ccccc1)NC(=O)[C@H](CC(N)=O)NC(=O)[C@H](C)NC(=O)[C@H](CC(C)C)NC(=O)[C@H](CCCNC(=N)N)NC(=O)[C@H](CCC(N)=O)NC(=O)[C@@H](NC(=O)[C@H](C)NC(=O)[C@@H]1CSSC[C@H](NC(=O)[C@H](CCCNC(=N)N)NC(=O)CNC(=O)CC[C@H](NC(=O)CCCCCCCCCCCCCCCCCCC(=O)O)C(=O)O)C(=O)N[C@@H](CC(N)=O)C(=O)N[C@@H]([C@@H](C)O)C(=O)N[C@@H](C)C(=O)N[C@@H]([C@@H](C)O)C(=O)N1)[C@@H](C)O)C(=O)N1CCC[C@H]1C(=O)N[C@@H](CO)C(=O)N[C@@H](CO)C(=O)N[C@H](C(=O)N[C@@H](CC(N)=O)C(=O)N[C@H](C(=O)NCC(=O)N[C@@H](CO)C(=O)N[C@@H](Cc1c[nH]cn1)C(=O)N[C@H](C(=O)N[C@@H](Cc1ccc(O)cc1)C(N)=O)[C@@H](C)O)C(C)C)[C@@H](C)O
notes: also called compound 47
B4: N^-1-[(4S)-4-carboxy-4-(19-carboxynonadecanoylamino)butanoyl]-Gly[Arg1,Arg17,Pro21,Pro27]-h-amylin (peptide)
peptide: {C20 diacid-γGlu}-GRCNTATCATQRLANFLRHSSPNFGAIPSSTNVGSNTY-NH2
modifications: disulfide 3-8
SMILES: CC[C@H](C)[C@H](NC(=O)[C@H](C)NC(=O)CNC(=O)[C@H](Cc1ccccc1)NC(=O)[C@H](CC(N)=O)NC(=O)[C@@H]1CCCN1C(=O)[C@H](CO)NC(=O)[C@H](CO)NC(=O)[C@H](Cc1c[nH]cn1)NC(=O)[C@H](CCCNC(=N)N)NC(=O)[C@H](CC(C)C)NC(=O)[C@H](Cc1ccccc1)NC(=O)[C@H](CC(N)=O)NC(=O)[C@H](C)NC(=O)[C@H](CC(C)C)NC(=O)[C@H](CCCNC(=N)N)NC(=O)[C@H](CCC(N)=O)NC(=O)[C@@H](NC(=O)[C@H](C)NC(=O)[C@@H]1CSSC[C@H](NC(=O)[C@H](CCCNC(=N)N)NC(=O)CNC(=O)CC[C@H](NC(=O)CCCCCCCCCCCCCCCCCCC(=O)O)C(=O)O)C(=O)N[C@@H](CC(N)=O)C(=O)N[C@@H]([C@@H](C)O)C(=O)N[C@@H](C)C(=O)N[C@@H]([C@@H](C)O)C(=O)N1)[C@@H](C)O)C(=O)N1CCC[C@H]1C(=O)N[C@@H](CO)C(=O)N[C@@H](CO)C(=O)N[C@H](C(=O)N[C@@H](CC(N)=O)C(=O)N[C@H](C(=O)NCC(=O)N[C@@H](CO)C(=O)N[C@@H](CC(N)=O)C(=O)N[C@H](C(=O)N[C@@H](Cc1ccc(O)cc1)C(N)=O)[C@@H](C)O)C(C)C)[C@@H](C)O
notes: also called compound 46
B5: N^ε-[2-[2-[2-[[(4S)-4-carboxy-4-(19-carboxynonadecanoylamino)butanoyl]amino]ethoxy]ethoxy]acetyl]Lys[Arg1,Arg17,Pro21,Pro27,His35]-h-amylin (peptide)
peptide: K([AEEA-γGlu-C20 diacid])RCNTATCATQRLANFLRHSSPNFGAIPSSTNVGSHTY-NH2
modifications: disulfide 3-8; N-terminus assumed
SMILES: CC[C@H](C)[C@H](NC(=O)[C@H](C)NC(=O)CNC(=O)[C@H](Cc1ccccc1)NC(=O)[C@H](CC(N)=O)NC(=O)[C@@H]1CCCN1C(=O)[C@H](CO)NC(=O)[C@H](CO)NC(=O)[C@H](Cc1c[nH]cn1)NC(=O)[C@H](CCCNC(=N)N)NC(=O)[C@H](CC(C)C)NC(=O)[C@H](Cc1ccccc1)NC(=O)[C@H](CC(N)=O)NC(=O)[C@H](C)NC(=O)[C@H](CC(C)C)NC(=O)[C@H](CCCNC(=N)N)NC(=O)[C@H](CCC(N)=O)NC(=O)[C@@H](NC(=O)[C@H](C)NC(=O)[C@@H]1CSSC[C@H](NC(=O)[C@H](CCCNC(=N)N)NC(=O)[C@@H](N)CCCCNC(=O)COCCOCCNC(=O)CC[C@H](NC(=O)CCCCCCCCCCCCCCCCCCC(=O)O)C(=O)O)C(=O)N[C@@H](CC(N)=O)C(=O)N[C@@H]([C@@H](C)O)C(=O)N[C@@H](C)C(=O)N[C@@H]([C@@H](C)O)C(=O)N1)[C@@H](C)O)C(=O)N1CCC[C@H]1C(=O)N[C@@H](CO)C(=O)N[C@@H](CO)C(=O)N[C@H](C(=O)N[C@@H](CC(N)=O)C(=O)N[C@H](C(=O)NCC(=O)N[C@@H](CO)C(=O)N[C@@H](Cc1c[nH]cn1)C(=O)N[C@H](C(=O)N[C@@H](Cc1ccc(O)cc1)C(N)=O)[C@@H](C)O)C(C)C)[C@@H](C)O
notes: also called compound 45

Numbered stars: 1 amine (or outer) side, 2 acyl side, 3 side chain; on linkers, the order of the positions; unused ones are H or OH. Bridge positions count the residues as written; N and C are the ends. Side chains are listed from the residue outwards. Ends that are not written are not given here. * marks the point of attachment. C20 diacid = O=C(O)CCCCCCCCCCCCCCCCCCC(=O)*; γGlu = O=C(O)[C@H](CCC(=O)[*:2])N[*:1]; AEEA = NCCOCCOCC(=O)O

Usually IC50 stands for the concentration at which inhibition is half-maximal.

The assay concerns the target T1, human calcitonin receptor. The experiment in a line: SPA competition against 125I-calcitonin, membranes with human calcitonin receptor (Assay VII). In short, it runs like this: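 BHK hCTR membranes 35 ng/μL + SPA beads 0.05 mg/well; buffer 50 mM Hepes pH 7.4, 1 mM CaCl2, 5 mM MgCl₂, 0.1% OA, 0.02% Tween20. 120 min, 25° C., shaking. Scintillation count; IC50 by one-site binding competition.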
B1: the IC50 worked out at 30.9 nM.

Take B2: the IC50 amounted to 4.87 nM. For B3, the IC50 was found to be 15.5 nM. B4: the IC50 worked out at 9.53 nM.

Take B5: the IC50 amounted to 14.8 nM.

The record behind these values is patent US20140087995A1 (published 2014).
